{"source": "paper PMC2887947", "assay_in_all_cases": "EMSA", "key": {"M. tuberculosis H-NS [1]": {"target": "T1, M. tuberculosis H-NS (Mycobacterium tuberculosis H37Rv, UniProt I6YHB0 1-134)", "T1 sequence": "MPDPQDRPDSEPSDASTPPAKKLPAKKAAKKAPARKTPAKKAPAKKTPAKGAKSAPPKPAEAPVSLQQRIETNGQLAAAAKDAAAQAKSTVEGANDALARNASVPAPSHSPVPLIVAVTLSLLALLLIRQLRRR"}, "M. tuberculosis H-NS [2]": {"target": "T1, M. tuberculosis H-NS", "remark": "listed apart in the source"}, "E. coli H-NS [3]": {"target": "T2, E. coli H-NS (Escherichia coli, UniProt P0ACF8 1-137)", "T2 sequence": "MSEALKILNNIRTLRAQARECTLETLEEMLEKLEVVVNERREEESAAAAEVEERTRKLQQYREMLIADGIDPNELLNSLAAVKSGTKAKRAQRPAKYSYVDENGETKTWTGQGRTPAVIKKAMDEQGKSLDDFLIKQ"}, "M. tuberculosis H-NS [4]": {"target": "T1, M. tuberculosis H-NS", "remark": "listed apart in the source"}, "E. coli H-NS [5]": {"target": "T2, E. coli H-NS", "remark": "listed apart in the source"}, "M. tuberculosis H-NS [6]": {"target": "T1, M. tuberculosis H-NS", "remark": "listed apart in the source"}}, "note": "Read-outs that look alike come from different tables or passages of the source."}
{"binder": "dsDNA 40% GC (83 bp) (dsDNA) DNA 1: GTACTATACGGTTGTACAGTGTTGTTAGTGAGTTGAAGATTGGAAGTAGTTTGCTAGGTGTCTTAGGAGAGAATCGTTAGTGT DNA 2: ACACTAACGATTCTCTCCTAAGACACCTAGCAAACTACTTCCAATCTTCAACTCACTAACAACACTGTACAACCGTATAGATC", "values": [{"measurement": "binding result", "setting": "M. tuberculosis H-NS [1]", "value": "binds"}]}
{"binder": "dsDNA 70% GC (83 bp) (dsDNA) DNA 1: GCGGTGGACGGCTGGGTCGGGTGGTGAGTGGGTTGCGATGGAGGTGGTGGGCTAGGGGGCTTAGGGGGGAGTCGGTGGTGG DNA 2: CCACCACCGACTCCCCCCTAAGCCCCCTAGCCCACCACCTCCCATCGCCAACCCACTCACCACCCGACCCAGCCGTCCACCGC", "values": [{"measurement": "binding signal", "setting": "M. tuberculosis H-NS [2]", "value": "~3 fold higher concentration for 50% binding than 40% GC dsDNA"}]}
{"binder": "Holliday junction (HJ) (structured_DNA) DNA 1: GCCGTGATCACCAATGCAGATTGACGAACCTTTGCCCACGT DNA 2: GACGTGGGCAAAGGTTCGTCAATGGACTGACAGCTGCATGG DNA 3: GCCATGCAGCTGTCAGTCCATTGTCATGCTAGGCCTACTGC DNA 4: GGCAGTAGGCCTAGCATGACAATCTGCATTGGTGATCACGG", "values": [{"measurement": "binding result", "setting": "E. coli H-NS [3]", "value": "binds"}, {"measurement": "Kd", "setting": "M. tuberculosis H-NS [1]", "value": "~32", "unit": "nM"}]}
{"binder": "DNA replication fork (structured_DNA) DNA 1: GACGTGGGCAAAGGTTCGTCAATGGACTGACAGCTGCATGG DNA 2: GCCATGCAGCTGTCAGTCCATTGTCATGCTAGGCCTACTGC DNA 3: GCAGTAGGCCTAGCATGA DNA 4: CGAACCTTTGCCCACGTC", "values": [{"measurement": "binding signal", "setting": "M. tuberculosis H-NS [4]", "value": "~6", "unit": "fold higher Kd than HJ"}, {"measurement": "binding result", "setting": "E. coli H-NS [5]", "value": "binds"}]}
{"binder": "Y-shaped junction (structured_DNA) DNA 1: GACGTGGGCAAAGGTTCGTCAATGGACTGACAGCTGCATGG DNA 2: GCCATGCAGCTGTCAGTCCATTGTCATGCTAGGCCTACTGC", "values": [{"measurement": "binding signal", "setting": "M. tuberculosis H-NS [6]", "value": "~7", "unit": "fold higher Kd than HJ"}]}
